# Experimental data from patent US6600012.
# Target: HLA.A2 on T2 mutant cells
# Experiment: T2 cell HLA.A2 upregulation assay, flow cytometry with MA2.1
binder,measurement,value
"SAPDTRPAP (modifications not checked) […, MUC-1 tandem repeat synthetic 9 mer]",% Change in mean channel intensity,48%
